Results from patent US20190322730A1.

B1: antibody 3D8 (antibody, V domains shown)
VH: EIQLQQSGAELVKPGASVKISCKASGYSFTGYNMNWVKQSHGKSLEWIGNINPYYGSTNYNQKFKGKATLTVDKSSTTAYMQLDSLTSEDSAVYYCARGYYGGNYPFAYWGQGTLVTVSA
VL: DIQMTQSPASLSASVGETVTITCRASENIYSYLAWYQQKQGKSPQLLVYNAKTLAEGVPSRFSGSGSGTQFSLKINSLQPEDFGSYYCQHYYGTPYTFGGGSKVEIK
B2: antibody 3G8 (antibody, V domains shown)
VH: EIQLQQSGAELVKPGASVKISCMASGYSFTGYNMNWVKQSHGKGLEWIGNINPYYDSTSYNQKFKGKATLTVDKSSSTAYMQLNSLTSEDSAVYYCARENYDFVGFAYWGQGTLVTVSA
VL: QIVLSQSPAILSASPGEKVTMTCRASSSVSYMHWFQQKPGSSPKPWIYVTSNLASGVPPRFSGSGSGTSYSLTISRVEAEDAATYYCQQWSTNPLTFGAGTKLELK
B3: antibody 38F5 (antibody, V domains shown)
VH: EVMLVESGGALVKPGGSLKLSCTASGFTFSNYAMSWVRQTPEKRLEWVAQTISSGGRYTYYPDSVKGRFTISRDNARNTLYLQMSSLRSEDTAMYYCVRRYYGNSYWYFDVWGAGTTVTVSS
VL: DIVMTQSPSSLSVSAGEKVTMNCKSSQSLLNSGNQKHYLTWYQQKPGQPPKLLIYGASTRGSGVPDRFTGSGSGTDFTLTISSVQAEDLAVYYCQNDHSYPYTFGGGTKLEIK
B4: antibody 38G10 (antibody, V domains shown)
VH: EVQLQQSGPELVKPGDSVKMSCKASGYTFTDFYMDWVKQSHGKSLEWIGYIYPHNGGTTYNQNFTGKATLTVDKSSNTAYMELHSLTSEDSAVYYCARRGGFDFDYWGQGTTLTVSS
VL: NIVMTQSPKSMSLSVGERVTLRCKASENVDTYVSWYQQKPEQSPKLLIYGASNRYTGVPDRFTGSGSATEFTLTISSVQAEDLVGYHCGQSHSYPLTFGAGTKLELK
B5: antibody 62F2 (antibody, V domains shown)
VH: DVQLQESGPDLVKPSQSLSLTCTVTGYSITSGYSLHWIRQFPGNKLEWMGYIHYSGSTNYNPSLKSRISITRDTSKNQFFLKLNSVTSEDTATYHCARAWDYLDYWGQGTTLTVSS
VL: DIQMTQSPASLSASVGETVTITCRASENIYSQLAWYQQKQGKSPQLLVYDAKTLAEGVPSRFSGSGSDTQFSLKIISLQPEDFGRYYCHHHFGILYTFGGGTKLEMK
B6: antibody 63A3 (antibody, V domains shown)
VH: DVQLQESGPGLVKPSQSLSLTCSVTGYSITSGYYWNWIRQFPGNKLEWMGYIRYDGSNNYNPSLKNRISITRDTSKNQVFLKLNSVTPEDTATYYCARHYGYDGGAFDFWGQGTTLTVSS
VL: DIQMTQSPASLSASVGETVTITCRTSENIYNYLVWYQQKQGKSPQLLVYNAKTLEEGVPSRFSGSGSGTQFSLKVNSLQPEDFGSYYCQHHYGTPFTFGSGTKLEIK

Legend:
Assay in all cases: binding screen of Example 5; method and unit not stated
iC3b = iC3b (UniProt P01024)
C3c = C3c (UniProt P01024)
C3b (human) = C3b (human) (UniProt P01024)
Sequence of C3b (human) (P01024 23-667 limits assumed, chain 1 of 2): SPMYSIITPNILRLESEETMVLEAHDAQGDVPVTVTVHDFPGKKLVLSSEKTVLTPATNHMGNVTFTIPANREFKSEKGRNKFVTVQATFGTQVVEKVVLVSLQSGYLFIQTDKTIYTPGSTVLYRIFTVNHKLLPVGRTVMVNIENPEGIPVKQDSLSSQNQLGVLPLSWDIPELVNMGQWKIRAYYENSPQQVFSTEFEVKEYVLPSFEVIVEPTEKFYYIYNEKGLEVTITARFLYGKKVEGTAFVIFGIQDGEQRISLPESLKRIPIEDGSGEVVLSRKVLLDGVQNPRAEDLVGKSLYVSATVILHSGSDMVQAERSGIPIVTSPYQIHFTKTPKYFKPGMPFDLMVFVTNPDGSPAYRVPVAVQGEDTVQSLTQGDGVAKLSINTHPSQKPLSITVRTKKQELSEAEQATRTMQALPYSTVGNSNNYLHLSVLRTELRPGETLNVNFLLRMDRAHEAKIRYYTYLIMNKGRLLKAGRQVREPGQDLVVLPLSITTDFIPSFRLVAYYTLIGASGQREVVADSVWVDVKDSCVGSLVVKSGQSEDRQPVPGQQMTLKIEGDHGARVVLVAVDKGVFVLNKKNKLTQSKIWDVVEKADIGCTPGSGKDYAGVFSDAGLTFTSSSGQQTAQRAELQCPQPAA
Sequence of C3b (human) (P01024 749-1663 limits assumed, chain 2 of 2): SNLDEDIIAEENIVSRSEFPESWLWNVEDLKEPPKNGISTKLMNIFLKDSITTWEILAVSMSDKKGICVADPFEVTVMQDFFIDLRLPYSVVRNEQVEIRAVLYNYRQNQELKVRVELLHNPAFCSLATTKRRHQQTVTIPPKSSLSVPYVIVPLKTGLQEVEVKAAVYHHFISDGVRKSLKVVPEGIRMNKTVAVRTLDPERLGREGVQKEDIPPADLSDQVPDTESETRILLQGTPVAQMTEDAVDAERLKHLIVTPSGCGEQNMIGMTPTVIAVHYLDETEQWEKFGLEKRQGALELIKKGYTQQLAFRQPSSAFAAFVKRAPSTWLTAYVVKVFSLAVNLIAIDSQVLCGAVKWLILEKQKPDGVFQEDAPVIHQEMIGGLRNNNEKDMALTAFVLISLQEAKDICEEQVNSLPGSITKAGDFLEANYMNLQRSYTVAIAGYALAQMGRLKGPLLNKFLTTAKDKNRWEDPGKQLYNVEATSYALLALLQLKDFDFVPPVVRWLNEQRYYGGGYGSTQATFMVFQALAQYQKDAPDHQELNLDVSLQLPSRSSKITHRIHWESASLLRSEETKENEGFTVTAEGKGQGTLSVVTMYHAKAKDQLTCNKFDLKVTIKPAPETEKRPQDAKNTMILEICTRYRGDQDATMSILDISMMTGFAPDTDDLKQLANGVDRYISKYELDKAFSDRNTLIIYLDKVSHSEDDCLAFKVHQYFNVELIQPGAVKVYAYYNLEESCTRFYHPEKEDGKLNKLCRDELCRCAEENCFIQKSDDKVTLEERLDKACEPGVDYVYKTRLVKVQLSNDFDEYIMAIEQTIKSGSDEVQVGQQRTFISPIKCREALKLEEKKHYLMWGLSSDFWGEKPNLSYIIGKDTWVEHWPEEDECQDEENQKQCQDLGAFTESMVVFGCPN

| Binder | binding relative to negative control mIgG2 (iC3b) | binding relative to negative control mIgG2 (C3c) | binding relative to negative control mIgG2 (C3b (human)) |
| --- | --- | --- | --- |
| B1 | 0.29 | 0.17 | – |
| B2 | 0.25 | 0.22 | – |
| B3 | 0.45 | 0.45 | – |
| B4 | 0.06 | 0.13 | 0.06 |
| B5 | 0.49 | 0.43 | – |
| B6 | 0.72 | 0.55 | – |
